The record followed here is paper PMC4289617.

The target of this assay is WDR5Δ23 (WD repeat domain 5, residues 24–334) (human) (UniProt P61964). The assay can be described thus: fluorescence polarisation.

The IC50 is the concentration needed to halve the response being measured. The low end stands for greater potency in that assay, the high end for weaker potency in that assay. For orientation: Ki means the equilibrium dissociation constant of an inhibitor or competing ligand from its target. Higher therefore signals lower affinity. Consider “Ac-2mer (Ac-3mer without Ala3) (peptide)”, for which the half-inhibitory concentration (IC50) came to 125 µM and the inhibition constant Ki was found to be 27 µM.

The substance Ac-3mer (Ac-ARA-NH2) (peptide) gave a half-inhibitory concentration (IC50) of 0.54 µM and a Ki of 0.12 µM.

Take Ac-H3-3mer (Ac-ART-NH2) (peptide): the 50% inhibitory concentration (IC50) came to 0.08 µM and the inhibition constant (Ki) was 0.02 µM.

Consider CHO-3mer (CHO-ARA-NH2) (peptide), for which the IC50 is 14.9 µM and the Ki amounted to 3.2 µM.

The substance H2N-3mer (H2N-ARA-NH2) (peptide) gave a half-maximal inhibitory concentration (IC50) greater than 300 µM and an inhibition constant (Ki) greater than 50 µM.

H3-3mer (H2N-ART-NH2) (peptide): the 50% inhibitory concentration (IC50) is 127 µM and the inhibition constant (Ki) was found to be 27.3 µM.

Consider Δ1 (Ac-AR-(N-Me)A-NH2) (peptide), for which the concentration for half-maximal inhibition (IC50) was greater than 300 µM and the Ki is greater than 50 µM.

Δ2a (Ac-ARA-CONHMe) (peptide) displayed an IC50 of 0.7 µM and an inhibition constant Ki of 0.15 µM.

In turn, Δ2b (Ac-ARA-CONMe2) (peptide) came in with an IC50 of 30 µM and a Ki of 6.5 µM.

Substance Δ2c (Ac-ARA-COOCH3) (peptide) showed a 50% inhibitory concentration (IC50) of 7.3 µM and an inhibition constant (Ki) of 1.6 µM.
